Bridge positions count the residues as written; N and C are the ends. Square brackets hold non-standard residues; d marks the D form. Ends that are not written are not given here. GdDOTAGA = Gd(III)-DOTAGA chelate, amide-linked; Bip = N[C@@H](Cc1ccc(-c2ccccc2)cc1)C(=O)O
Assays:
Experiment in all cases: dried collagen film in microtiter plate; unbound compound by ICP-MS (Gd); fit to 1 binding site
[1] = target: T1, human type I collagen (VitroCol solution, Advanced Biomatrix, cat#5007-A) (human, UniProt P02452 179-1192; P08123 91-1104, limits assumed)
T1 construct: In the assay the collagen was gelled and dried as a fibril film in microtiter wells; also called human collagen; Human Collagen Type I
Protocol: (§1) Ice-cold 1×PBS pH 10.8 is added to the collagen solution for a final collagen concentration of 10 μM, pH 7.4. Collagen solutions are gelled and dried down in the wells of a 96 well microtiter plate (Corning Polystyrene Flat Bottom, cat#3641). 70 μl of 10 μM collagen is aliquoted into each well in every other lane in the plate (48 wells) and the plate is incubated at 37° C. for 18 hours to form a gel and evaporate to dryness. Ungelled collagen is removed by washing the collagen films with 200 μl 1×PBS pH 7.4 (four times, 15 min per wash). The thin collagen fibril film remains, coating the bottom of each well. After washing by PBS the plate is again dried at 37° C. for 2 hours and is stored at −20° C. The final well content of gelled collagen is measured by determination of hydroxyproline and is around 180 μg/ml.
(§2) a serial dilution of 0.2 μM-30 μM of the peptide chelate is prepared in PBS, pH 7.4 (˜300 μL of solution for each concentration). 90 μl of each concentration is also reserved in a HPLC glass vial as a sample to measure the total concentration. 140 μL of each dilution of peptide chelate is added to wells containing and non-containing collagen (control for nonspecific plastic binging). The plate is then incubated on a shaker table (300 rpm) for 2 hours at room temperature to allow the compound to bind. After 2 hours the supernatant from each well (with or without collagen) is transferred to an HPLC glass vial. The concentration of free, unbound compound in the sample supernatants and the concentration of compound in the reserved (total) sample are determined by ICP-MS (Agilent 7500, gadolinium concentration). The concentration of compound bound to collagen is determined as [bound]=[total]−[unbound].
(§3) The binding of compounds to human, rat and dog collagen (5 μM) was measured over the concentration range 0.2-5 μM of Comp ID Nos.: 1-4. The binding data was fit to a model of 1 binding site.

[2] = target: T2, rat collagen (acid soluble, type I, rat tail, Millipore Inc, cat#08-115) (rat, UniProt P02454 152-1207; P02466 86-1125)
T2 construct: In the assay the collagen was gelled and dried as a fibril film in microtiter wells; also called rat collagen type I
Protocol: as §1, §2, §3

[3] = target: T3, Canine collagen (Native canine Collagen Type I and III protein, YO protein AB, cat#739) (canine, UniProt Q9XSJ7 158-1214; O46392 80-1119)
T3 construct: The bought preparation is a mixture of native canine collagen types I and III, not one defined trimer; It was gelled and dried as a film in microtiter wells; also called dog collagen
Protocol: as §1, §2, §3

T3 sequence (Q9XSJ7 158-1214, chain 1 of 2): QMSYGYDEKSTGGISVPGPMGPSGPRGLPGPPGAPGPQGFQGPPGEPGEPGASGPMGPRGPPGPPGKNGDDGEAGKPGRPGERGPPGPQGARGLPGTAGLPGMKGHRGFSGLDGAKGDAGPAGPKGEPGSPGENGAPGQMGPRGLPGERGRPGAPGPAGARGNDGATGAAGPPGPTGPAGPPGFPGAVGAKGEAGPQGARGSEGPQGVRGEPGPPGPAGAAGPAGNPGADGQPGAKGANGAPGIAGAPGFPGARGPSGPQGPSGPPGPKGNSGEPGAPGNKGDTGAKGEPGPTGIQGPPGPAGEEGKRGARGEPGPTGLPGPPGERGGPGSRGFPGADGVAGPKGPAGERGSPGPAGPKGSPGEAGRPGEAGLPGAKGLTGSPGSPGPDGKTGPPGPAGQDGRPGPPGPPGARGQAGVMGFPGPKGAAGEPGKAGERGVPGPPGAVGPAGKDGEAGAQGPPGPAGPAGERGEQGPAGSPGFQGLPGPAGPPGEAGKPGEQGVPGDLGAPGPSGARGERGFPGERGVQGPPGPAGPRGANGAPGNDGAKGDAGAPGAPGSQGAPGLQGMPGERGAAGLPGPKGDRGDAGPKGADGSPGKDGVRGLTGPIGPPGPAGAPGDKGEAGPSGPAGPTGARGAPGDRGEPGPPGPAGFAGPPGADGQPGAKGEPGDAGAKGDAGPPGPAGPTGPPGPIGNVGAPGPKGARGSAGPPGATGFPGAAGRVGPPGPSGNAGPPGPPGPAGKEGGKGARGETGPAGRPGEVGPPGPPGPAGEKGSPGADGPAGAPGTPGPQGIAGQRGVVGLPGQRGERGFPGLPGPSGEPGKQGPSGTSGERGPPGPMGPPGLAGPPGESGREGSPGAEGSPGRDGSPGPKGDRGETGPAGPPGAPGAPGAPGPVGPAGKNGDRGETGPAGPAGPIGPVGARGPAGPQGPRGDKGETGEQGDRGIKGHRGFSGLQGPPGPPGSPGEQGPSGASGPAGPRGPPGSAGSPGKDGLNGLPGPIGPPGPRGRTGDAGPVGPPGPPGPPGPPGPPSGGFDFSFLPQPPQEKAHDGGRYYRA
T3 sequence (O46392 80-1119, chain 2 of 2): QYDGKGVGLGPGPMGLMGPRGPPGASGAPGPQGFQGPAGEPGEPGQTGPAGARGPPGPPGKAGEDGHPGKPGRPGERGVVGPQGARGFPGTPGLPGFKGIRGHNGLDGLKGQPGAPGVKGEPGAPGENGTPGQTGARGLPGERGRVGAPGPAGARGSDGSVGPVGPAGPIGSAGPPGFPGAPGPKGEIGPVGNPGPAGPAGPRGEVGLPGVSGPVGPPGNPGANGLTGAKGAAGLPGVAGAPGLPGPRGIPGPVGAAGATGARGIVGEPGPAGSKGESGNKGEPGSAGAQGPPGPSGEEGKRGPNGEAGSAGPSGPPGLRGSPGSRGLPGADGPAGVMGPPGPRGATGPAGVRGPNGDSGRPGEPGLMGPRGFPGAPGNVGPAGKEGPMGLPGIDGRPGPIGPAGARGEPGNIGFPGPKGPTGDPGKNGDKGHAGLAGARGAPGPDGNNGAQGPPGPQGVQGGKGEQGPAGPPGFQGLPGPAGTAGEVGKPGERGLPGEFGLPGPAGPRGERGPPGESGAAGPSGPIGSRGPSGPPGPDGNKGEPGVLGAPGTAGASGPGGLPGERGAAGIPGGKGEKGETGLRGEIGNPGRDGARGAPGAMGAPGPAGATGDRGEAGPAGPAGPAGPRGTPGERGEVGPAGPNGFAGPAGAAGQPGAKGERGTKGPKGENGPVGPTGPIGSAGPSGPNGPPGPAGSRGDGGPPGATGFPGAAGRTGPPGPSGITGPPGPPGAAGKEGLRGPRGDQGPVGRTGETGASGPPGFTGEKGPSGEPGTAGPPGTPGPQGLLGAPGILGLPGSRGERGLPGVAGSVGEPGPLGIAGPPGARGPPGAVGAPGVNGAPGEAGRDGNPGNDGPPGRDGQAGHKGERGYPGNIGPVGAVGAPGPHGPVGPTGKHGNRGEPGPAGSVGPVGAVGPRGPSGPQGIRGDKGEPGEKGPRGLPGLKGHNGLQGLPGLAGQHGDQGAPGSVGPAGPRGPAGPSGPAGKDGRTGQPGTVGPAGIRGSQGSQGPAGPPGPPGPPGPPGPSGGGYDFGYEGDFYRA
T2 sequence (P02454 152-1207 limits assumed, chain 1 of 2): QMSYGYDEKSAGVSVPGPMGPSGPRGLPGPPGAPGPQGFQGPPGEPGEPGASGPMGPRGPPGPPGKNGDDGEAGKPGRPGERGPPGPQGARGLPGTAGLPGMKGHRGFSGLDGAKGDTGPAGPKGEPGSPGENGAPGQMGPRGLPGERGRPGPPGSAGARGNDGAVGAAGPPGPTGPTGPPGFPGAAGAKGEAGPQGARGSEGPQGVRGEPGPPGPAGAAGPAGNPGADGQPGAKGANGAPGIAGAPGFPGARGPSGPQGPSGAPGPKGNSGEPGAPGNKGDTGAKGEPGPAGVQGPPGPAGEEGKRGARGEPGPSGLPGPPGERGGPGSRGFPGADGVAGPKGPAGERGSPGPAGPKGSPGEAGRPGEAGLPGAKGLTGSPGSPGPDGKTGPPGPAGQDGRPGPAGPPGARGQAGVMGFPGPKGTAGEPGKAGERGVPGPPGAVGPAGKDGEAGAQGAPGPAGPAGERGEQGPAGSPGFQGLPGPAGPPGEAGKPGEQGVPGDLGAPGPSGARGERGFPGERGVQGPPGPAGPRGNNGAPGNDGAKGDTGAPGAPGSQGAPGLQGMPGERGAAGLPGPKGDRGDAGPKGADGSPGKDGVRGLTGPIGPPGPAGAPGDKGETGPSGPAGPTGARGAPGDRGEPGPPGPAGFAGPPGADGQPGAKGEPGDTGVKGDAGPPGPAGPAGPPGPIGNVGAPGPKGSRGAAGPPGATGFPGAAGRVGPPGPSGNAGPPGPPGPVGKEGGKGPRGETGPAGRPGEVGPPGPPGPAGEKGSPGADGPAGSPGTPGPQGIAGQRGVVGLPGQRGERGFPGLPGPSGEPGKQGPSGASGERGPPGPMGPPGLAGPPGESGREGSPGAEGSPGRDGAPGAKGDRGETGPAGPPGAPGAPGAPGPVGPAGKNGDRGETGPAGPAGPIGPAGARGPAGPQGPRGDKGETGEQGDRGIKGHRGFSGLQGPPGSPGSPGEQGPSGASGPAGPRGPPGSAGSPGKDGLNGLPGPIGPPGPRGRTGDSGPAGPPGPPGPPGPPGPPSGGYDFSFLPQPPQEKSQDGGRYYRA
T2 sequence (P02466 86-1125 limits assumed, chain 2 of 2): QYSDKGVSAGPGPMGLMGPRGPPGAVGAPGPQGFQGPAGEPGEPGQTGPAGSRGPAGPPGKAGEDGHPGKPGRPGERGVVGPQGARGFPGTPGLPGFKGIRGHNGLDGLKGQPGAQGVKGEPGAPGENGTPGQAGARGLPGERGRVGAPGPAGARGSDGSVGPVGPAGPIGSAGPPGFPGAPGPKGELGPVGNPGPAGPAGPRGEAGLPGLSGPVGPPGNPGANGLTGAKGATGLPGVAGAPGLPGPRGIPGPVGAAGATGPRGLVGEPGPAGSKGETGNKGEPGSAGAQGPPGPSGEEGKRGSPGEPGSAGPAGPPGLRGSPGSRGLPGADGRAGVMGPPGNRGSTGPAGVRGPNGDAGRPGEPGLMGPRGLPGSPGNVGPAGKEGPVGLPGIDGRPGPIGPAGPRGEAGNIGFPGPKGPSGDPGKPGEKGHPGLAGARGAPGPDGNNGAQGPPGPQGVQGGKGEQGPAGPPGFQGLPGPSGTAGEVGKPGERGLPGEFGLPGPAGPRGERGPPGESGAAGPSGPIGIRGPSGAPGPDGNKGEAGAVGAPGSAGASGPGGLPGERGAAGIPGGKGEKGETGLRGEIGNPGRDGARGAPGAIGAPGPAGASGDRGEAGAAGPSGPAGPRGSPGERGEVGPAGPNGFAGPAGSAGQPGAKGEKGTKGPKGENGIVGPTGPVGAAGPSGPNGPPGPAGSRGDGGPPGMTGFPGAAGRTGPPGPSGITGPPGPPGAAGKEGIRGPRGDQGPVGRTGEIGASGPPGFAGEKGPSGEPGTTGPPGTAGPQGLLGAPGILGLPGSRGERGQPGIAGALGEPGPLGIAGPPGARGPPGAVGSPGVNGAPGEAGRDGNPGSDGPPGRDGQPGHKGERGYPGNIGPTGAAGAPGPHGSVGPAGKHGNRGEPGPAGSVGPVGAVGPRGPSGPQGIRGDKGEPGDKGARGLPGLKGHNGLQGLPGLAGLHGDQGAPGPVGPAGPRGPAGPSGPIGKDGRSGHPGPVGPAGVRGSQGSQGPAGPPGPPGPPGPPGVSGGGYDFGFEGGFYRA

Binder | Kd [1] [µM] | Kd [2] [µM] | Kd [3] [µM]
GKWHCTTKFPHHYCLY (Bip (L-4,4'-biphenylalanine) at position 17; C-terminal amide (NH2); cyclized through Cysteine-Cysteine disulfide bond (Cys5-Cys14); GdDOTAGA coupled by amide bonds to the primary amines (N-terminal amine and lysine epsilon amino groups), Tested as the Gd(III)-DOTAGA chelate conjugate of the cyclic peptide; also called CMPD ID 1; Comp ID No. 1) [Compound ID No. 1] | 3.8 | 21.1 | 4.4
GdDOTAGA-K(GdDOTAGA)WHCTTK(GdDOTAGA)FPHHYCLY[Bip]-NH2 (disulfide 4-13, Tested as the Gd(III)-DOTAGA chelate conjugate of the cyclic peptide; also called CMPD ID 2) [Compound ID No. 2] | 4.9 | 20.6 | 4.9

Continued, values first:

Kd [1] [µM] | Kd [2] [µM] | Kd [3] [µM] | Binder
9.6 | 4.6 | 2 | KWHCYTKFPHHYCVY[Bip]-NH2 (disulfide 4-13; not fully specified (residues 1, 7, N-terminus); printed as K-W-H-C-Y-T-K-F-P-H-H-Y-C-V-Y-Bip; also: GdDOTAGA on N-terminal amine or lysine epsilon amino groups, Tested as the Gd(III)-DOTAGA chelate conjugate of the cyclic peptide; also called CMPD ID 4) [Compound ID No. 4]
29.8 |  |  | GdDOTAGA-K(GdDOTAGA)YWHCTTK(GdDOTAGA)FPHHYCLY[Bip]-NH2 (disulfide 5-14, Tested as the Gd(III)-DOTAGA chelate conjugate of the cyclic peptide; also called CMPD ID 3) [Compound ID No. 3]

Reference: patent US20160375155A1 (COLLAGEN MEDICAL, published 2016)
